The values below come from publication PMC12418388 (2025).

This assay has as its target T1, DDX6 (Homo sapiens, UniProt P26196).
T1 chain: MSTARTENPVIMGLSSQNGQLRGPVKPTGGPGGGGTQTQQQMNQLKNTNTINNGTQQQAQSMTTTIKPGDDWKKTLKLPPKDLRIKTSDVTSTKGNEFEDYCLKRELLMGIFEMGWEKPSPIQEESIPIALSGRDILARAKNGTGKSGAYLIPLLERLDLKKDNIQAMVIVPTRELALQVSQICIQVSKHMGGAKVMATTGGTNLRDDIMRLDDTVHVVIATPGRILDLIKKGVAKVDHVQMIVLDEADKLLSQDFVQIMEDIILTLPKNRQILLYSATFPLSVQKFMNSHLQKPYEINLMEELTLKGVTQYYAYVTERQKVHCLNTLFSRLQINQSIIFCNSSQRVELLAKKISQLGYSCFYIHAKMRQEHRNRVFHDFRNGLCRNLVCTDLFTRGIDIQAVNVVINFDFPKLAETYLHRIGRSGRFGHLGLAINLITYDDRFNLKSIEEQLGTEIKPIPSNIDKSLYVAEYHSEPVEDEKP
Nature of the assay: BLI.

B1: DDX3X (protein)
chain: SHVAVENALGLDQQFAGLDLNSSDNQSGGSTASKGRYIPPHLRNREATKGFYDKDSSGWSSSKDKDAYSSFGSRSDSRGKSSFFSDRGSGSRGRFDDRGRSDYDGIGSRGDRSGFGKFERGGNSRWCDKSDEDDWSKPLPPSERLEQELFSGGNTGINFEKYDDIPVEATGNNCPPHIESFSDVEMGEIIMGNIELTRYTRPTPVQKHAIPIIKEKRDLMACAQTGSGKTAAFLLPILSQIYSDGPGEALRAMKENGRYGRRKQYPISLVLAPTRELAVQIYEEARKFSYRSRVRPCVVYGGADIGQQIRDLERGCHLLVATPGRLVDMMERGKIGLDFCKYLVLDEADRMLDMGFEPQIRRIVEQDTMPPKGVRHTMMFSATFPKEIQMLARDFLDEYIFLAVGRVGSTSENITQKVVWVEESDKRSFLLDLLNATGKDSLTLVFVETKKGADSLEDFLYHEGYACTSIHGDRSQRDREEALHQFRSGKSPILVATAVAARGLDISNVKHVINFDLPSDIEEYVHRIGRTGRVGNLGLATSFFNERNINITKDLLDLLVEAKQEVPSWLENMAYEHHYKGSSRGRSKSSRFSGGFGARDYRQSSGASSSSFSSSRASSSRSGGGGHGSSRGFGGGGYGGFYNSDGYGGNYNSQGVDWWGN
B1: binding was characterised by a dissociation constant (Kd) of 389 nM.
